The nature of the data set: label from the status in PepcDB records.

For “MAHEGEQFIKDIQREYVDFLDDEEDQGIYAGHVKDMIAEKSKRLIVNVNDLKRKNPQRALGLLSNAADEQLAFGRALKEYASTVDPGYAKMHEDLFVGFEGCFGNRHVTPRSLTSIYLGNMVCVEGIVTKVSLIRPKVVRSVHYCPNTRKVMERKYTDLTSFEAVPSGAAYPTKDEDGNLLETEYGLSVYKDHQTLTIQEMPEKAPAGQLPRSVDIVCDDDLVDRCKPGDRVQIVGSYRCLPGKRGGYTSGTFRTVLLANNISLLSKESNLDISREDIMLCKKLAKNNDIFELLSKSLAPSIHGHAYVKQAILCLLLGGVEKILPNGTRLRGDINVLLIGDPSVAKSQLLRYVLNTAPRAIPTTGRGSSGVGLTAAVTTDQETGERRLEAGAMVLADRGVVCIDEFDKMSDIDRTAIHEVMEQGRVTISKAGIHASLNARCSVLAAANPVYGRYDQYKTPMENIGLQDSLLSRFDLLFVMLDVIDSDVDQMISDHVVRMHRYRNPKEADGEPLSMGSSYADSLSFVSSSEEKKDTEVYEKYDALLHGKSRQRHEKILSVEFMRKYIHIAKCMKPKLGEQACEAIANEYSRLRSQEAVETDVARTQPITARTLETLIRLSTAHARARMSKSVTIDDAHAAIELVQFAYFKKVLDKDRPSKRRRNSGSDAEDDNGEASSQRSPSRRSKRTRTATVGADSDEEDIEPPQPDAGDLTRRETRRSLPARSVAMLMASPSSEEQSVATSTTEPAIISDARLGEFKNNLQRLFREAREQSLALARITTAINVGSQEPFTAGEIEAAVHRMTEDNQIMVADDIVFLI”, the protein production result was “failed”.

Consider “MAHPPQIRIPATYLRGGTSKGVFFRLEDLPESCRVPGEARDRLFMRVIGSPDPYAAHIDGMGGATSSTSKCVILSKSSQPGHDVDYLYGQVSIDKPFVDWSGNCGNLSTGAGAFALHAGLVDPARIPEDGICEVRIWQANIGKTIIAHVPVSGGQVQETGDFELDGVTFPAAEIVLEFLDPSDDGEDGGAIFPTGNLVDDLEVPGVGTFKATMINAGIPTVFVNAEEIGYRGTELREEINGDPQQLARFERIRVAGALRMGLIKTPEEAATRQHTPKIAFVAPPRDYRTASGKLVAAGDIDLLVRALSMGKLHHAMMGTAAVAIGTAAAIPGTLVNLAAGGGERSAVRFGHPSGTLRVGAEASQANGEWTVTKAIMSRSARILMEGWVRVPGDAF”, for which the protein production entry is recorded as “not failed”. On to “MAHSPLVSIVVPAHNAEATLARALDCLLDQEIVDWEAVIVDDASTDRTPAIIAGYVEHDARFRTLRSSTSSAAGARNSGISTARGHWLMFLDADDWVDASFLAKMLAALKAAPDAVAAYCGSRRVMPDGELTPSSISTEVAIQPFETFARQCAIRTHALLVDREAIVGLGGFDVSLRTCENWDLWQRLAHLGKRWVMVDEPLAFYRVSPNSLSRNSTQMLADAEIVIARGFSADPRVSHPASGQANGAISANGGTASEALAWFALWNAASDCGRGSRSIDPQALRALPAGRKWAREIAEVAIDGLMVGSLSVPAQLAARWGRFGGPLTELIIELGKVWDNPAAGRRVQYQLEQMLLDADDLAAPRRLARTLGIRVDVRNPNAIELPEGIDRIYAYLMMDGQIEAVVQFGVLGTVTRDHWIELIQNVVPAERLADSTARLAGRSTVPQEGAGADTSNTFAAEALLFTAERRSDPDSHFGKLAQLTAEARELVRSSAEPEQPPAVPRRARAADTNDRTAFWNSYFATEDPWNYGSLYEQEKYQRQLEILPAGPIGRVLELACAEGHFTRQLAPRVSHLTATDISAIAIERARARCGDQPNIEFGVLDFAADMLPGEMDLIVCSEVLYYLDDLADLRRITKKFTEALAPGGSFITAHAFVLRDNVERTGFDWNTFGAQAISETLAATEGLVLEQSIQTELYRIDRFRRLSPDDLVTEPMIDHAPIRAQIEIGVARNIIWGGARALRRDVARNEQRQRVPVLMYHSVSDDGPAALARFRLTPAGFGSQMAWLRANGFHAINSEQLEGCIANRQPFVGRPVLITFDDGFQNFADHAWPTLRANDLTAEVFLVTDLVGKGAQWDAHNGPPTQLMDAGTVRRLAGEGAFFGSHMATHRAIDGLSSSDLAAELLRSRMFIERWTGRPTTAFTAPFSVTDRRLGRLARECGYRIGFGARHGPADLDCDLIDLPRIEIRGDRSLDDFVATVEAVLKER”, for which the protein production entry is given as “failed”. Next, “MAHTVYENARIYTVNDQQPTASVLVVEQGKIIYVGGNDGAKQFKATAAELFDLEGKTVLPGFIESHAHPLEHHHHHH”: “failed”.

The record behind these values is a protein production outcome set (Wang et al. 2014).
